“Also recorded” adds a separate entry of the source. No end group written: not given here.
Key:
[1] = system: evoked neuronal activity flow from the dentate gyrus to area CA1; settings: Refojo et al., 2011, von Wolff et al.; cited from earlier work
EGFP-NPSR = experiment: Cy3-NPS uptake in HEK cells transiently transfected with EGFP-NPSR; assay type: cell-based
Text: In view of the fact that the NPSR is reported to be the only receptor mediating NPS effects (Duangdao et al., 2009) it may be concluded that the intracellular uptake of Cy3-NPS observed here also in vivo (FIGS. 1A-1D and FIG. 7A) likewise depends on the NPSR.

ventral hippocampus (VH) = experiment: Spread of Cy3-NPS after microinjection into area CA1 of the VH; assay type: in vivo, mouse; settings: 0.07 nmol unilaterally into CA1 of VH, 30 min after injection
Method: Animals were fixed in a stereotactic frame and maintained under isoflurane anesthesia (Forene® 100%, V/V; induction: 2.5%; maintenance: 1.5%; in O2; flow rate: 1 L/min). The mice received acute analgesic treatment with Metacam s.c. during surgery (0.5 mg/kg; in NaCl). 23 gauge stainless-steel guide cannulas were implanted in the CA1 region of the VH at the following coordinates: 3.1 mm posterior, ±3 mm lateral from bregma, and 2 mm ventral from the skull surface (Franklin and Paxinos, 2007). The guide cannulas were fixed with two screws and a two-component adhesive. For behavioural experiments, animals were implanted bilaterally for later bilateral injection, whereas for Cy3-NPS injections, implantation was performed unilaterally. The animals were allowed to recover for at least 6 days before starting the behavioural experiments. Substance infusions were carried out manually, on mice anesthetised by brief inhalation of isoflurane, using a 30 gauge injection cannula connected to a Tygon tube and a 10 μL Hamilton syringe. After infusion, the injection cannula was kept in place for additional 30 s to prevent substance outflow.
Cy3-NPS was administered unilaterally at a concentration of 0.07 nmol in a volume of 0.7 μL ACSF. […] After mounting with a fluorescence-preserving medium (Shandon Immu-Mount, Thermo Scientific, Bonn, Germany), sections were stored at 4° C.

brain target neurons = settings: mouse, in vivo, 4 h
Method: For intranasal application, the anesthetised mice were placed in a supine position, with the head supported at a 450 angle to the body as reported elsewhere (van den Berg et al., 2002). […] The mice were sacrificed at 15 min, 30 min and 4 hrs after the first application.
Brains were removed, post-fixed in 4% formaldehyde and cryoprotected in 20% sucrose, then shock-frozen in methylbutane. Immunohistochemistry was performed on free-floating cryosections (40 μm). The primary antibodies used were specific for neurofilament (1:1000; Abcam, Cambridge, UK) and GFAP (1:250; DAKO, Glostrup, Denmark). The secondary antibodies used were specific for mouse (Alexa 488 goat anti-mouse IgG) and rabbit (Alexa 488 donkey anti-rabbit IgG) (1:300; Invitrogen, Leek, The Netherlands). The sections were counterstained with DAPI (200 ng/ml; Carl Roth, Karlsruhe, Germany) and mounted with a fluorescence-preserving mounting medium (Shandon Immu-Mount, Thermo Scientific, Waltham, Mass., USA).
After acquisition, the images were processed using Photoshop and Illustrator (Adobe, San Jose, Calif., USA).

[2] = system: NPS target cells in the murine brain; settings: mouse, in vivo
Method: The mice were sacrificed 30 min post-injection.
Immunohistochemistry was performed on free-floating cryosections (40 μm).

[3] = system: evoked neuronal activity flow from the dentate gyrus to area CA1; experiment: Voltage-sensitive dye imaging (VSDI) in VH slices; design: species or system mouse; settings: (R)-SHA 68 10 μM, pretreatment 15 min, NPS 1 μM
Method: According to Maggio and Segal (2007) and Fanselow and Dong (2010), VSDI experiments were conducted in the VH. Horizontal brain slices (350 μm-thick) were prepared as described in Refojo et al., 2011 and/or von Wolff et al., 2011). Only the first two slices from the ventral surface of the brain in which the CA1 region was clearly visible were used for the measurements. Staining of slices with the voltage-sensitive dye Di-4-ANEPPS and VSDI were carried out at room temperature (23-25° C.). For staining, slices were kept for 15 min in carbogenated (95% O2/5% CO2) ACSF containing Di-4-ANEPPS (7.5 μg/mL; <0.1% DMSO). The ACSF (pH 7.4) consisted of (in mM): 125 NaCl, 2.5 KCl, 25 NaHCO3, 1.25 NaH2PO4, 2 CaCl2, 1 MgCl2, and 25 glucose. Afterwards, slices were stored for at least 30 min in pure carbogenated ACSF. In the recording chamber, slices were continuously superfused with carbogenated ACSF (3 mL/min flow rate). VSDI and data analysis were performed using the MiCAM02 hard- and software package (BrainVision, Tokyo, Japan). The tandem-lens fluorescence microscope was equipped with the MiCAM02-HR camera and the 2× and 1× lens at the objective and condensing side, respectively. Acquisition settings were: 88×60 pixels frame size, 36.4×40.0 μm pixel size, and 2.2 ms sampling time. To reduce noise, four acquisitions subsequently recorded at intervals of 5 s were averaged. Neuronal activity was evoked by square pulse electrical stimuli (200 μs, 15-20 V) delivered to the dentate gyrus granule cell layer via a custom-made monopolar tungsten electrode (Teflon-insulated to the tip of 75 μm diameter). From recorded signals, the fractional change in fluorescence (ΔF/F) was calculated. For all quantifications, ΔF/F values were spatially and temporally smoothed using a 3×3×3 average filter. VSDI signals presented in images were smoothed with a 5×5×3 average filter. Pixelation of images was reduced by the interpolation function of the MiCAM02 software. […]

Molecule: corticotropin-releasing hormone (SEEPPISLDLTFHLLREVLEMARAEQLAQQAHSNRKLMEII; ends and bridges not checked; UniProt P06850 154-194, looked up) [corticotropin-releasing hormone (CRH), anxiogenic neuropeptide]
- activity flow from the dentate gyrus to area CA1 [1]: enhances this activity flow

Molecule: Cy3-NPS: fluorescent NPS-conjugate (Cy3-NPS), Phoenix Pharmaceuticals (SFRNGVGTGMKKTSFQRAKS; also: Cy3 label, place not given here; UniProt P0C0P6 70-89, looked up)
- internalisation in HEK cells transfected with EGFP-NPSR (EGFP-NPSR; 10 min of incubation with Cy3-NPS): the receptor-ligand complex was internalised and subsequently accumulated in cytoplasmic and perinuclear vesicular structures
- uptake in HEK cells transfected with empty EGFP-expression plasmid (EGFP-NPSR; control cells without NPSR): did not take up Cy3-NPS molecules
- spread of injected Cy3-NPS (ventral hippocampus (VH)): remained locally restricted to the VH and accumulated in single cells of the hippocampal pyramidal, radiate, and oriens layers; also recorded: locally restricted to the site of injection
- uptake in nuclei of the amygdala (ventral hippocampus (VH)): not observed
- remaining Cy3-NPS after intranasal application (brain target neurons): almost all traces of Cy3-NPS disappeared
- cellular fluorescence after ICV injection [2]: single cells already exhibited distinct patterns of fluorescence
- co-localisation with neurofilament (NF) and GFAP markers [2]: co-localised exclusively with the neuronal marker
- subcellular localisation in target cells [2]: found in the cytosol and throughout the processes of target cells

Molecule: O=C(NCc1ccc(F)cc1)N1CCN2C(=O)OC(c3ccccc3)(c3ccccc3)[C@H]2C1 [(R)-SHA 68, reference compound]
- effect of NPSR antagonist on the NPS effect [3]: completely abolished
